From IntAct's records for PubMed 28302851

B1: Circadian clock oscillator protein KaiB (Thermosynechococcus elongatus (strain BP-1)), Q79V61 (parent)
chain: MAPLRKTYVLKLYVAGNTPNSVRALKTLNNILEKEFKGVYALKVIDVLKNPQLAEEDKILATPTLAKVLPPPVRRIIGDLSNREKVLIGLDLLYEEIGDQAEDDLGLE
partner: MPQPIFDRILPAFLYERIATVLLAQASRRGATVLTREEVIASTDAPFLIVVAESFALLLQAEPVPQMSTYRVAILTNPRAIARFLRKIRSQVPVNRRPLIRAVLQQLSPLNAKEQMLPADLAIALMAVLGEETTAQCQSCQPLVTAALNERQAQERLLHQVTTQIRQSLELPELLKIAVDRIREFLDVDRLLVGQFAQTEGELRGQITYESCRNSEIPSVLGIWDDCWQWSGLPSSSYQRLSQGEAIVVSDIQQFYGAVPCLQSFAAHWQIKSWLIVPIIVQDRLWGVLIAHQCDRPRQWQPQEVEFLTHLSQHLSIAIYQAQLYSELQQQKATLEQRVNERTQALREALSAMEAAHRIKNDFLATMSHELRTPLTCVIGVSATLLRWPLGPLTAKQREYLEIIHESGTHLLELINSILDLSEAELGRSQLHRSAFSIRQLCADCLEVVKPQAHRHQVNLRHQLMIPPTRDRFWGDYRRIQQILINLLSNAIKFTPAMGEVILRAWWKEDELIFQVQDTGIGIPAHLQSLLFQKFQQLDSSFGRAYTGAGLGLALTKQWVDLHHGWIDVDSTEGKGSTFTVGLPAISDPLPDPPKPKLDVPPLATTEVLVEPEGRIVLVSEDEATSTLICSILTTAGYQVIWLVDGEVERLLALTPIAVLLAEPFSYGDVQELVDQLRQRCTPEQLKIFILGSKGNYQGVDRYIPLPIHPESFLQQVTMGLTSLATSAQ
B2: Circadian clock oscillator protein KaiB (Thermosynechococcus elongatus (strain BP-1)), Q79V61 (parent)
chain: B1 chain
partner: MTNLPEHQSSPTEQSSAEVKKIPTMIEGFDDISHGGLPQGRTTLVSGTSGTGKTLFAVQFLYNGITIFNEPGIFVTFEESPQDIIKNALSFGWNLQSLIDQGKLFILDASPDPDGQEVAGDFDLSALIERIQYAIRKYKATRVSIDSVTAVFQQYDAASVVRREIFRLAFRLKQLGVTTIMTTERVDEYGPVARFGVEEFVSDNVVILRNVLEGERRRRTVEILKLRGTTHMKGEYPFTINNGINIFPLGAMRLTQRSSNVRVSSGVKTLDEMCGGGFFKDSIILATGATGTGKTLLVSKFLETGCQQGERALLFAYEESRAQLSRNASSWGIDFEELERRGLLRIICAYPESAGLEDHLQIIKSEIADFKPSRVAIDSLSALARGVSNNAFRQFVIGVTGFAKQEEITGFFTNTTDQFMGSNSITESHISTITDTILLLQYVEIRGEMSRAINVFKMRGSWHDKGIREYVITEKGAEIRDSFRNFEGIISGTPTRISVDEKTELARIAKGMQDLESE

Variants of: B1
Conditions: with cika_thevb cikA

Variant	effect of a mutation on the interaction
N29A	with no effect

Variants of: B2
Conditions: with kaic_thevb kaiC

Variant	effect of a mutation on the interaction
Y8A;I88A;Y94A	with no effect
